Results taken from the nanobody polyreactivity screen of Harvey et al. (2022).

Assay: yeast display, Sf9 membrane polyspecificity reagent, FACS + sequencing; frameworks hold sequencing errors
Summary of the method: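 A synthetic nanobody library was expressed on Saccharomyces cerevisiae BJ5465 by galactose induction for 36–48 hours. The library was stained for 1 hour at 4 °C with 10% biotinylated, detergent-solubilized Sf9 membrane reagent and enriched with streptavidin microbeads before FACS. Low and high (top ~1%) gates were set on anti-HA fluorescence for expression and streptavidin fluorescence for reagent binding, and each polyreactivity label reflects the gate of origin.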

Row | Sequence | polyreactivity (PSR sort gate)
1 | QVQLVESGGGLVQAGGSLRLSCAASGSTFDYYDMGWYRQAPGKERELVATITSGGSTNYADSVKGRFTISRDNAKNTVYLQMNSLKPEDTAVYYCAADIGGDGEGYDYWGQGTQVTVSS | low polyreactivity
2 | QVQLVESGGGLVQAGGSLRLSCAASGSTFDYYTMGWYRQAPGKERELVAAISYSGSRTYYADSVKGRFTISRDNAKNTVYLQMNSLKPEDTAVYYCAAVYRAKYGYWGQGTQVTVSS | high polyreactivity
3 | QVQLVESGGGLVQAGGSLRLSCAASGSTFDYYTMGWYRQAPGKERELVAAITSGGSTYYADSVKGRFTISRDNAKNTVFLQMNSLKPEDTAVYYCAAGYIWFRKFQFDYWGQGTQVTVSS | high polyreactivity
4 | QVQLVESGGGLVQAGGSLRLSCAASGSTFEANAMGRYRQAPGKERELVAVITWTGGSTYYADSVKGRFTISRDNAKNTVYLQMNSLKPEDTAVYYCAADGVVPGRFFWPAHEYDYWGQGTQVTVSS | low polyreactivity
5 | QVQLVESGGGLVQAGGSLRLSCAASGSTFEANAMGWYRQAPGKERELVAVITWTGGSTYYADSVKGRFTISRDNAKNTVYLQMNSLKPEDTAVYYCAADGVVPGRFFWPAHEYDYWGQGTQVTVSS | low polyreactivity
6 | QVQLVESGGGLVQAGGSLRLSCAASGSTFEDNAMGWYRQAPGKERELVAAITTGGGSTYYADSVKGRFTISRDNAKNTVYLQMNSLKPEDTAVYYCAVYRYYGFSLWYDYWGQGTLVTVSS | low polyreactivity
7 | QVQLVESGGGLVQAGGSLRLSCAASGSTFEFNDMGWYRQAPGKERELVASIRHSDGSTYYADSVKGRFTISRDNAKNTVYLQMNSLKPEDTAVYYCNKAFQWSGGQVSYDYWGQGTQVTVSS | low polyreactivity
8 | QVQLVESGGGLVQAGGSLRLSCAASGSTFEQYAMGWYRQAPGKERELVAAINRGGSTYYADSVKGRFTISRDNAKNTVYLQMKSLKPEDTAVYYCAVYAFVRYRSRYGYWGQGTQVTVSS | high polyreactivity
9 | QVQLVESGGGLVQAGGSLRLSCAASGSTFERYAMGWYRQAPGKKGSWLPYADSVKGRFTISRDNAKNTVYLQMNSLKPEDTAVYYCNAERYSPTLNLDRGWEYDYWGQGTQVTVSS | low polyreactivity
10 | QVQLVESGGGLVQAGGSLRLSCAASGSTFERYVMGWYSQAPGKARELVADINSGGSTNYADSVKGRFTISRDNAKNTVYLQMNSLKPEDTAVYYCAAKRRYYGPWSRMGYDYWGQGTQVTVSS | low polyreactivity
11 | QVQLVESGGGLVQAGGSLRLSCAASGSTFESNAMGWNRQAPGKERDLVASISGSGGSTFYADSVKGSFTISRDNAKNTVYLQMNILKPEDTGVYYCAAYKEPYYEEYGYWGQGTQVTVSS | low polyreactivity
12 | QVQLVESGGGLVQAGGSLRLSCAASGSTFESNAMGWYRQAPGKERELVAAISRGGNTYYADSVKGRFTISRDNAKNTVYLQMNSLKPEDTAVYYCAADGAGWLDYGYWGQGTQVTVSS | low polyreactivity
13 | QVQLVESGGGLVQAGGSLRLSCAASGSTFESNTMGWYIQAPGKERELVAAISYSGGRTYYADSVKGRFTISRDNAKNTVYLQMNSLKPEDTAVYYCAARTFRISRMDYWGQGTQVTESS | high polyreactivity
14 | QVQLVESGGGLVQAGGSLRLSCAASGSTFESYAMVWYRQAPGKERELVAAISRRGGRTYYADSVKGRFTISRDNAKNTVYLQMNSLKPEDTAVYYCATDSSYYGSDDYWGQGTQVTVSS | high polyreactivity
15 | QVQLVESGGGLVQAGGSLRLSCAASGSTFEVNAMGWYRQAPGKERELVASITDGGITNYADSVKVRFTISRDNAKNTVYLQMNSLKPEDTAVYYCAAVGWYYSYYYFWGGYWGQGTQVTVSS | high polyreactivity
16 | QVQLVESGGGLVQAGGSLRLSCAASGSTFEWNAMGWYRQAPGKERELVAAISGTGGNTYYADSVKGRFTISRYNAKNTVYLQMNSLKPEDTAVYYCNTDYGEYSSWDLQWWYIPYDYWGQGTQVTVSS | low polyreactivity
17 | QVQLVESGGGLVQAGGSLRLSCAASGSTFEYNAMRWYRQAPGKERELVAAITWSVGSTYYADSVKGRFTISRDNAKNSVSIQMNSLKPEDTAVDYCARVPSAFARWHTYDYWGQGTQVTVSS | low polyreactivity
18 | QVQLVESGGGLVQAGGSLRLSCAASGSTFEYYAMGWYRQAPGKERELVAAISTSGGSTYYADSVKGRFTISRDNAKNTVYLQMNSLKPEDTAVYYCNRGRRYSHKYDYWGQGTQVTVSS | high polyreactivity
19 | QVQLVESGGGLVQAGGSLRLSCAASGSTFEYYAMGWYRQAPGKERELVAAITRRGGSTYYADSVKGRFTISRDNAKNTVYLQMNSLKPEDTAVYYCAAVPTQKSPRTHDYWGQGTQVTVSS | low polyreactivity
20 | QVQLVESGGGLVQAGGSLRLSCAASGSTFEYYAMGWYRQAPGKERELVATITFGGGSTYYADSVKGRFTISRDNAKNTVYLQMNSLKPEDTAVYYCAADSGYLGIYGDEYSWGQGTQVTVSS | low polyreactivity
21 | QVQLVESGGGLVQAGGSLRLSCAASGSTFEYYAMGWYRQAPGKERELVATMSIDGRTNYADSVKGRFTISRDNAKNTVYLQMNSLKPEDTAVYYCAARPYWRHRYDYWGQGTQVTVSS | low polyreactivity
22 | QVQLVESGGGLVQAGGSLRLSCAASGSTFFANAMGWFRQAPGKAREFVAVITWGGSTYYADSVKGRFTISRDNAKNSVYLQMNSLKPEDTAVYYCNADYQPPGILYHWWRYYRGDYWGQGTQVTVSS | low polyreactivity

Row | Sequence | polyreactivity (PSR sort gate)
23 | QVQLVESGGGLVQAGGSLRLSCAASGSTFFCYAMGWYRQAPGKERELVAAISRSGDRTYYADSVKGRFTISRDNAKNTVYLQMKSLKPEDTAVYYCAAKGFKPSDWGQGTQVTVSS | high polyreactivity
24 | QVQLVESGGGLVQAGGSLRLSCAASGSTFFDYAMGWYRQAPGKERELVAAISRSGDTNYADSVKGRFTISRDNAKNTVYLQMNSLKPEDTAVYYCAKDWAYRRHWVGFYYWGQGTQVTVSS | low polyreactivity
25 | QVQLVESGGGLVQAGGSLRLSCAASGSTFFGNTMGWYRKAPGKERELVATITRRGGSTYYADSVKGRFTISRDNAKNTVYLQMNSLKPEDTAVYYCAKRGPYTKYDYWGQGTQVTVSS | low polyreactivity
26 | QVQLVESGGGLVQAGGSLRLSCAASGSTFFGYAMGWYRQAPGKERELVAAIRYNGGRTYYADSVKGRFTISRDNAKNTVYLQMNSLKPEDTAVYYCAAYISYSRTYYYWGQGTQVTVSS | low polyreactivity
27 | QVQLVESGGGLVQAGGSLRLSCAASGSTFFGYTMGWYRQARGKERELVAAITRRGGSTYYADSVKGRFTISRDNAKNTVYLQLNSLKPEDTAVYYCNAVSKSTNYAGRYDYWGQATQVTVSS | high polyreactivity
28 | QVQLVESGGGLVQAGGSLRLSCAASGSTFFIKAMGWYRQAPGKERELVAAITSTDSTTYADSVKGRFTISRDNAKNTVYLQMNSLKPEDTAVYYCAKETIGQDPVSGAWARHEYDYWGQGTQVTVSS | low polyreactivity
29 | QVQLVESGGGLVQAGGSLRLSCAASGSTFFINAMGWYRQEHGTEREFVASISYSGGSTYYADSVKGRFTISRDNAKNTVYLQMNSLKPEDTAVYYCNADVRVFLHYSKYNYWGQGTQVTVSS | low polyreactivity
30 | QVQLVESGGGLVQAGGSLRLSCAASGSTFFIYAMGWYRQAPGKERELVAAISWRDGSTYYADSVKGRFTISRDNAKNTVYLQMNSLKPEDTAVYYCAADYLLPWGIELDYWGQGTQVTVSS | high polyreactivity
31 | QVQLVESGGGLVQAGGSLRLSCAASGSTFFKNTMGWYRQAPGKEREFVAAIRWSTSRTYYADSVKGRFTISRDNAKYTVYLQMTSLKPEDTAVYYCNAGTSLSRRYPEDYYWGQGTQVTVSS | high polyreactivity
32 | QVQLVESGGGLVQAGGSLRLSCAASGSTFFLKAMGWYRQSPGKERELVAAISYSDSGTNYADSVKGRFTISRDNAKNTVYLQMNSLKPEDTAVYYCATAVRPWYVTSGNYWGQGTQVTVSS | low polyreactivity
33 | QVQLVESGGGLVQAGGSLRLSCAASGSTFFLYAMGWYRQAAGKERELVAAISVSGGSTRYADSVNGRFTISRDHAKNTVYLQMNSLKPEDTAVYYCAAASRLEYSHATLYYWGQGTQVTVSS | high polyreactivity
34 | QVQLVESGGGLVQAGGSLRLSCAASGSTFFLYAMGWYRQAPGKEREFVAAISIGGSTNYADSVKGRFTISRDNAKNTVYLQMNSLKPEDTAVYYCAKLDLQYIQYLGYDYWGQGTQVTVSS | low polyreactivity
35 | QVQLVESGGGLVQAGGSLRLSCAASGSTFFPYAMGWYRQAPGKERELVAAIRWSGGRTYYADSVKGRFTISRDNAKNTVYLQMNSLKPEDTAVYYCAADKYLDYDYWGQGTQVTVSS | high polyreactivity
36 | QVQLVESGGGLVQAGGSLRLSCAASGSTFFPYAMGWYRQAPGKVRELVAAIRWSGGRTYYADSVKGRFTISRDNAKNTVFLQMNSLNPEDTAVYYCAAYKYLDYDYGGQGTQVTVSS | high polyreactivity
37 | QVQLVESGGGLVQAGGSLRLSCAASGSTFFRNAMGCYRQAPGKERELVADISASGGSTYYADSVKGRFTISRDNAKNTVYLQMNSLKPEDTAVYYCNALYIYFYNYLTMDYWGQGTQVTVSS | low polyreactivity
38 | QVQLVESGGGLVQAGGSLRLSCAASGSTFFSNTMGWYRQAPGKERELVAAITSRGGRTYYADSVKGRFTISRDNAKNTVYLQMNSLKPEDTAVYYCAARFVLHGVYLKFYWGQGTQVTVSS | high polyreactivity
39 | QVQLVESGGGLVQAGGSLRLSCAASGSTFFSYAMGWYRQAPGKERELVAAISWIDDGTYYADSVKGRFTISRDNAKNTVYLQMNSLKPEDTAVYYCAATKFWYYGYDYWGQGTQVTVSS | low polyreactivity
40 | QVQLVESGGGLVQAGGSLRLSCAASGSTFFTNAMGWYRPAPGKERELVAAITINDGSTFYADSVKGRFTISRDNAKNSDYLQMNSLKPEDTAVYYCNTDGVDLYDYWGQGTQVTVSS | low polyreactivity
41 | QVQLVESGGGLVQAGGSLRLSCAASGSTFFTNAMGWYRQAPGKERELVAAITINDGSTFYADSVKGRFTISRDNAKNTVYLQMNSLKPEDTAVYYCNADGVDLYDYWGQGTQVTVSS | low polyreactivity
42 | QVQLVESGGGLVQAGGSLRLSCAASGSTFFTNVMGWYRQAPGKERELVAVIRWRGSDTYYADSVKGRFTISRDNAKNTVYLQMNSLKPEDTAVYYCNAIESFYPTTGEQGYSYDYWGQGTQVTVSS | low polyreactivity
43 | QVQLVESGGGLVQAGGSLRLSCAASGSTFFVNAMGWYRQAPGKERELVASITVSSGRTYYADSVKGRFTISRDNAKNTVYLQMNSLKPEDTAVYYCAARHLYWRREGYYWGQGTQVTVSS | high polyreactivity
